Measurements as given in US20110183329A1, “PROTEIN PHOSPHATASE-1 INHIBITOR-1 POLYMORPHISM AND METHODS OF USE” (priority 2008, published 2011).
Where a chain is given by its changes, count along the chain named.

B1: WT inhibitor-1: wild-type human protein phosphatase-1 inhibitor-1 (SEQ ID NO:13) overexpressed by recombinant adenovirus (protein, listed as Homo sapiens)
chain: MEQDNSPRKIQFTVPLLEPHLDPEAAEQIRRRRPTPATLVLTSDQSSPEIDEDRIPNPHLKSTLAMSPRQRKKMTRITPTMKELQMMVEHHLGQQQQGEEPEGAAESTGTQESRPPGIPDTEVESRLGTSGTAKKTAECIPKTHERGSKEPSTKEPSTHIPPLDSKGANSV
B2: D147 inhibitor-1: human inhibitor-1 with aspartic acid for glycine at position 147 (SEQ ID NO:14), overexpressed by recombinant adenovirus (protein, listed as Homo sapiens)
chain: B1 chain with G147D

Columns and labels:
adult rat cardiomyocytes = assay: Contractile parameter measurements in adenovirus-infected myocytes; format: cell-based; settings: for contractility response to isoproterenol (fractional shortening, contraction, relaxation): adenovirus-infected cardiomyocytes; for cellular contractility (fractional shortening, contracting velocity, relaxing velocity): basal conditions, overexpression by adenovirus, 24 h
Protocol: Adult rat ventricular myocytes were isolated and cultured. Hearts from adult male Sprague-Dawley rats (8 wk old) were perfused with modified Krebs-Henseleit buffer (KHB) (118 mM NaCl, 4.8 mM KCl, 25 mM HEPES, 1.25 mM K2HPO4, 1.25 mM MgSO4, 11 mM glucose, 5 mM taurine, and 10 mM butanedione monoxime; pH 7.4) for 5 min. Subsequently, hearts were perfused with an enzyme solution [KHB containing 0.7 mg/ml collagenase type II (263 U/mg), 0.2 mg/ml hyaluronidase, 0.1% BSA, and 25 μM Ca]. Ten and 15 min later, 25 and 50 μM Ca, respectively, were added to the perfusion buffer, so that the Ca concentration was raised to 100 μM, and perfusion was continued for another 5 min. Finally, left ventricular tissue was excised, minced, pipette dissociated, and filtered through a […] screen. Cells were harvested and resuspended in KM including 1 mM Ca and 1% BSA. After a brief centrifugation, the cells were resuspended in KHB including 1.8 mM Ca and 1% BSA, centrifuged briefly again, and resuspended in Dulbecco's modified Eagle's medium containing 2 mg/ml BSA, 2 mM L-camitine, 5 mM creatine, 5 mM taurine, 1.8 mM Ca, 100 IU/ml penicillin, and 100 μg/ml streptomycin. Cells were then counted and plated on laminin-coated glass coverslips or dishes.
(§1) Recombinant adenovirus carrying empty vector, wild-type (WT) G147 inhibitor-1, or D147 inhibitor-1 was generated by using the Adeno-X expression system kit (Clontech, Mountain View, Calif.). All of the adenoviruses also expressed GFP as an indicator of transfection efficiency. Two hours after isolation and culture, myocytes seeded on coverslips or dishes were infected with adenovirus in diluted media, at a multiplicity of infection of 500, for 2 h before the addition of a suitable volume of culture media. Twenty-four hours later, the myocytes were washed in KHB including 1 mM Ca and harvested for quantitative immunoblotting or use in the experiments outlined below.
Myocytes that adhered to the coverslips were bathed in temperature (37° C.)—equilibrated KHB containing 1 mM Ca for 20 min. The myocyte suspension was then placed in a Plexiglas chamber, which was positioned on the stage of an inverted epifluorescence microscope (Diaphot 200; Nikon, Tokyo, Japan). Myocyte contraction was field-stimulated by a Grass S5 stimulator (0.5 Hz, square. waves; Grass Technologies, An Astro-Med, Inc., West Warwick, R.I., USA), and contractions were videotaped and digitized on a computer. A video edge motion detector (Crescent Electronics, Windsor, ON, Canada) was used to measure myocyte length and cell shortening, from which the percent fractional shortening (% FS) and maximal rates of contraction and relaxation (±dL/dt) were calculated. To investigate the response of adult rat cardiomyocytes to isoproterenol, a maximal concentration of isoproterenol (100 nM) was added to the KHB (including 1 mM Ca) in the Plexiglas chamber, and the above-mentioned measurements were repeated. All data were analyzed using software from Felix 1.1 software (Photon Technology International, Birmingham, N.J., USA) and IonWizard (IonOptix Corp., Milton, Mass., USA).

PLN = assay: Western blotting of PLN phosphorylation in infected cardiomyocytes; format: cell-based, rat
troponin I = assay: Western blotting of troponin I phosphorylation in infected cardiomyocytes; format: cell-based; settings: adult rat cardiomyocytes
Protocol: as §1
(§2) Alterations in the phosphorylation and/or total level of proteins were analyzed from whole heart homogenates, with the exception of MyBP-C, which was analyzed from a myofibril protein preparation, using Western blotting. 2-70 μg of protein were separated on polyacrylamide gels (6-15%) and transferred to nitrocellulose membranes. The membranes were incubated with primary antibodies, which were visualized by peroxidase-conjugated secondary antibodies (Amersham Biosciences) and enhanced chemiluminescence (Supersignal West Pico Chemiluminescent, Pierce). The bands were then quantified with densitometry, using ImageQuant 5.2 (GE Healthcare, Little Chalfont, UK). […]

RyR = assay: Western blotting of RyR phosphorylation in infected cardiomyocytes; format: cell-based; settings: adult rat cardiomyocytes
Protocol: as §1, §2

[1] = tested on: major regulatory proteins related to cardiac calcium homeostasis; assay: Quantitative immunoblotting of calcium homeostasis regulatory proteins after adenoviral gene transfer; format: cell-based, rat; settings: 24 h post-transfection
Excerpt: FIG. 2. Isolated adult rat cardiomyocytes were infected with adenoviruses expressing GFP as control (empty), G147 inhibitor-1 or D147 inhibitor-1. (A) Images of infected cardiomyocytes and GFP expression. (B) Representative western blots display expression levels of inhibitor-1, SERCA 2a, PLN, CSQ, and L-type Ca-channel (LTCC).
as §1

Row | Molecule | effect of isoproterenol on contractility of control-virus cardiomyocytes (adult rat cardiomyocytes; 100 nM isoproterenol, control virus) | effect of isoproterenol on phosphorylation of PLN in control cells (PLN; control cells) | effect of isoproterenol treatment on troponin I phosphorylation (troponin I) | effect of isoproterenol treatment on RyR phosphorylation (RyR) | contractility response to isoproterenol (fractional shortening, contraction, relaxation) (adult rat cardiomyocytes; 100 nM isoproterenol) | cellular contractility (fractional shortening, contracting velocity, relaxing velocity) (adult rat cardiomyocytes) | level of phosphorylated PLN on serine 16 depressed (PLN; in the presence of isoproterenol) [%] | phosphorylation of PLN (PLN; in the presence of isoproterenol, versus control cells) | levels of the major regulatory proteins related to cardiac calcium homeostasis [1] | contractility response at lower isoproterenol dose (adult rat cardiomyocytes; 10 nM isoproterenol) | contractile parameters depressed compared with WT inhibitor-1-stimulated cells (adult rat cardiomyocytes; 100 nM isoproterenol)
1 | CC(C)NCC(O)c1ccc(O)c(O)c1 (centres unmarked) [isoproterenol, reference compound] | enhanced contractility | increased | increased | increased |  |  |  |  |  |  | 
2 | B1 |  |  |  |  | enhanced contractility | did not alter | ~50 | similarly increased | did not alter |  | 
3 | B2 |  |  |  |  | significantly blunted | did not alter |  |  | did not alter | differences similar to those observed in 100 nM | 24-28%
